Publication PMC10848957

Target: FakA_M, central zinc finger domain of Streptococcus suis FakA (Streptococcus suis serotype 2, strain 05ZYH33)
Experiment: cross-linking

## FakA_M, central zinc finger domain of Streptococcus suis FakA (domain or fragment)
  stoichiometry N: 2
